{"source": "paper PMC4642857", "target": "microtubule polymerized from porcine brain tubulin, stabilized with paclitaxel (porcine)", "assay": "co-sedimentation"}
{"substance": "purified γ stalk–LC1 complex (from UniProt Q9XHH2 1-198)", "values": [{"measurement": "Bmax/Kd", "value": 0.053}, {"measurement": "Kd", "value": 19, "unit": "µM"}]}
